These results are taken from article PMC12089306.

This assay concerns the target TEAD4 (UniProt Q15561). The experiment in a line: co-immunoprecipitation. To be noted: reference: wild type SP1.

As to “SP1 (from UniProt P08047) T681 single mutant”, the “binding against the reference” value (sites T681) is listed as “weaker”.

“SP1 (from UniProt P08047) S670 single mutant”: the “binding against the reference” value (sites S670) is on record as “weaker”.

As for “SP1 (from UniProt P08047) T668 single mutant”, where the note is “sites T668”, the “binding against the reference” value is “weaker”.
